How the values were obtained:
[1] = target: HCV NS3/NS4A protease complex (NS3 protease domain residues 1-182 preincubated with synthetic NS4A cofactor peptide) (hepatitis C virus); test: single-turnover cleavage kinetics (Western blot of remaining substrate); 0.1 μM IKKε with 5 μM NS3 + 244 μM NS4A peptide, 23 °C, digestion buffer (50 mM HEPES pH 7.8, 0.5 mM EDTA, 25% glycerol, 10 mM DTT, 0.25 M KCl, 0.05 M NaCl, 0.2% CHAPS); Kd estimated by Equation (2) from the constant c of the single-exponential fit, assumed to be unbound kinase
[2] = target: HCV NS3/NS4A protease complex (NS3 protease domain residues 1-182 preincubated with synthetic NS4A cofactor peptide) (hepatitis C virus); test: single-turnover cleavage kinetics (Western blot of remaining substrate); 0.5 μM IKKε with 5 μM NS3 + 244 μM NS4A peptide, 23 °C, digestion buffer (50 mM HEPES pH 7.8, 0.5 mM EDTA, 25% glycerol, 10 mM DTT, 0.25 M KCl, 0.05 M NaCl, 0.2% CHAPS); Kd estimated by Equation (2) from the constant c of the single-exponential fit, assumed to be unbound kinase

In the case of “Recombinant human IKKε (Inhibitor of κB kinase ε) (from UniProt Q14164 1-716) (enzyme)”, the Kd [1] is reported as 4.57 µM and the Kd [2] is reported as 1.68 µM.

Source: PMC9913602
